Changes are numbered by the printed parent chain. In names and notes the source's numbering stands. Several values for one entry are separate records, joined by “and”; a condition that tells them apart may be missing. Identical values can stand only once.
B1: Bri2 BRICHOS domain (residues 113-231 of full-length human Bri2), wild type (domain or fragment, UniProt Q9Y287 113-231, looked up)
chain: QTIEENIKIFEEEEVEFISVPVPEFADSDPANIVHDFNKKLTAYLDLNLDKCYVIPLNTSIVMPPRNLLELLINIKAGTYLPQSYLIHEHMVITDRIENIDHLGFFIYRLCHDKETYKL
notes: Bri2 (integral membrane protein 2B), human, BRICHOS domain, residues 113-231 of full-length human Bri2; In the monomer Cys164 and Cys223 form an intramolecular disulfide; dimers and oligomers have intermolecular disulfides; also called Bri2 BRICHOS monomers; Bri2 BRICHOS dimers; source: E. coli, expressed and purified as previously described (monomer, dimer and oligomer species isolated)
B2: NT*-Bri2 BRICHOScys mutant C223S (NT*-Bri2 BRICHOScys 164-164 dimer) (domain or fragment, human, UniProt Q9Y287 113-231, looked up)
chain: B1 chain with C111S
modifications: intermolecular Cys164-Cys164 homodisulfide
notes: Bri2 (integral membrane protein 2B), human, BRICHOS domain, residues 113-231 of full-length human Bri2, C223S; NT* fusion kept as a means to tell the species apart by size; also called Cys164 dimers; source: E. coli, dimer fraction purified with NT* solubility tag
B3: Bri2 BRICHOScys mutant C164S without NT* tag (Cys223-Cys223 dimer) (domain or fragment, human, UniProt Q9Y287 113-231, looked up)
chain: B1 chain with C52S
modifications: intermolecular Cys223-Cys223 homodisulfide
notes: Bri2 (integral membrane protein 2B), human, BRICHOS domain, residues 113-231 of full-length human Bri2, C164S; also called Cys223 dimers; source: E. coli, dimer fraction purified without NT* solubility tag
B4: NT*-Bri2 BRICHOScys mutant C164S (NT*-Bri2 BRICHOScys 223-223 dimer) (domain or fragment, human, UniProt Q9Y287 113-231, looked up)
chain: B1 chain with C52S
modifications: intermolecular Cys223-Cys223 homodisulfide
notes: Bri2 (integral membrane protein 2B), human, BRICHOS domain, residues 113-231 of full-length human Bri2, C164S; NT* fusion kept as a means to tell the species apart by size; also called Cys223 dimers; source: E. coli, dimer fraction purified with NT* solubility tag
B5: Bri2 BRICHOS Thr to Trp (T206W) mutant (domain or fragment, human, UniProt Q9Y287 113-231, looked up)
chain: B1 chain with T94W
notes: Bri2 (integral membrane protein 2B), human, BRICHOS domain, residues 113-231 of full-length human Bri2, T206W; also called Thr to Trp Bri2 BRICHOS mutant; source: E. coli, expressed and purified as previously described

Tests used:
[1] = target: the molecule itself; test: SEC; Bri2 BRICHOS monomers, non-incubated or incubated at 37°C without reductant; 20 mM phosphate buffer, 0.2 mM EDTA, pH 8; monomer to dimers and tetramers
[2] = target: the molecule itself; test: non-reducing SDS-PAGE and Western blot; dimer fractions of the NT*-Bri2 BRICHOScys mutants under non-reducing conditions
[3] = target: B4; test: non-reducing SDS-PAGE and Western blot; dimer fractions of Bri2 BRICHOScys mutants with or without NT* mixed 1:1 at 10 μM final protein, 20 mM phosphate buffer pH 8, 0.2 mM EDTA, 0.02% NaN3, 2.5x thrombin inhibitor, 37°C overnight; mixed disulfide band; conditions: both partners purified
[4] = target: the molecule itself; test: other fluorescence titration; apparent; tryptophan fluorescence emission change upon dimer formation of the T206W mutant, excitation 280 nm, emission 300-400 nm, 96 well plate; single exponential fit; monomer to dimer/assembly

Binder: B1
- stoichiometry N [1]: 2 and 4

Binder: B2
- binding result [2]: binds

Binder: B3
- binding result [3]: binds

Binder: B4
- binding result [2]: binds

Binder: B5
- Kd [4]: 1000 ± 200 nM
